Data set [1] addresses T1, alpha-thrombin (Homo sapiens, UniProt P00734;P00734 P00734:328-363,P00734:364-622). Briefly: FRET quenching slightly larger than FQ-15Ap; Exosite II; not displaced by HirF or AHT.
The target of data set [2] is T2, sulfated hirudin fragment 54-65 (HirF) (UniProt P01050 P01050:54-65, not fully specified).
T2 chain: GDFEEIPEEYLQ
Briefly: FRET control without thrombin, no fluorescence change. The following applies: tags: Sigma-Aldrich; peptide with sulfated Tyr; label: 5'-6-FAM, 3'-Dabcyl; G4.

A further data set concerns the target antithrombin III (AT3) (Homo sapiens, UniProt P01008 P01008:33-464). Described as above. The following applies: tags: Haematologic Technologies Inc; label: 5'-6-FAM, 3'-Dabcyl; G4.
In data set [3] the target is T1, alpha-thrombin. Briefly: FP; anisotropy increased more than 30% at 1:1; 20 mM Tris-HCl pH 7.6, 50 mM NaCl, 5% glycerol.
In data set [4] the target is T1, alpha-thrombin. The data set can be described thus: FP; anisotropy bait complex; slowly displaced by AT3.

Sequence of antithrombin III (AT3) (P01008 33-464, one chain of several): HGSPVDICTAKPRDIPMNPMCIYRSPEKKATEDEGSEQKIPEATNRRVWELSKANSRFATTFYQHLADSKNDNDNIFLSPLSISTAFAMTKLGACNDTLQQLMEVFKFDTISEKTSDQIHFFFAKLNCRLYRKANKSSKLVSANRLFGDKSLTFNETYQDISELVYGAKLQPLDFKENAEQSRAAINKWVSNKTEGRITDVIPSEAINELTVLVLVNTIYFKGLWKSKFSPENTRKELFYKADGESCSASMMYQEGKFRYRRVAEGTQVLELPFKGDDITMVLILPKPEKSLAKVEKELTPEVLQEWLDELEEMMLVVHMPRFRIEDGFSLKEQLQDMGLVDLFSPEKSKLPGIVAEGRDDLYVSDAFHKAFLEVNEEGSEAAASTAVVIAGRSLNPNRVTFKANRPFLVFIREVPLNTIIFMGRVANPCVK
Method for antithrombin III (AT3): Fluorescence measurements were performed on a Fluorolog-3 spectrofluorometer (Jobin Yvon Inc., Edison, N.J.). […] Slit widths were varied to yield the best signals. All measurements were carried out in a 100 μL cuvette. In the aptamer/thrombin binding experiments, a very small volume of α-thrombin at a high concentration was added to an aptamer solution in the cuvette to make a molar ratio of aptamer and thrombin 1:1, and the fluorescence signals were recorded before and after the addition. For protein-protein binding reaction, an aptamer/thrombin mixture at 1:1 molar ratio was placed in the cuvette, and small volumes of the second protein solution at high concentrations were added to the mixture to make the desired prey protein concentrations. All dilution effects caused by the addition of samples to the original solutions were corrected during data analysis. Anisotropy measurements were also done with Fluorolog-3 spectrofluorometer.
Bovine serum albumin (BSA) was used as a control protein for interaction with α-thrombin.

B1: FQ-27Ap (ssDNA)
DNA: ACCCGTGGTAGGGTAGGATGGGGTGGT
Take B1: the binding result in the data set with alpha-thrombin [1] is listed as “binds”.

B2: FQ-15Ap (ssDNA)
DNA: GGTTGGTGTGGTTGG
On to B2, for which the binding result (in data set [2]; with antithrombin III (AT3)) was “no binding” throughout.

B3: T-15Ap (ssDNA)
DNA: GGTTGGTGTGGTTGG
As to B3, the binding result with alpha-thrombin [3] is “binds”.

B4: T-27Ap (ssDNA)
DNA: ACCCGTGGTAGGGTAGGATGGGGTGGT
Regarding B4, the binding result with alpha-thrombin [4] is reported as “binds”.

The values are drawn from patent US20090208936, “IDENTIFICATION OF MOLECULAR INTERACTIONS AND THERAPEUTIC USES THEREOF” (Univeristy of Florida Research Foundations Inc., published 2009).
